Reference: article PMC10716038, “Talin and kindlin use integrin tail allostery and direct binding to activate integrins” (Nature Structural & Molecular Biology, 2023)
Values joined by “and” are separate entries in the source; they are usually repeats but may differ in a detail not shown here. Equal values may be shown once. One block for each binder: values may come before it. No end group written: not given here.

B2: talin-1 head domain (THD1) (domain or fragment, UniProt P26039 1-405, looked up)
chain: MVALSLKISIGNVVKTMQFEPSTMVYDACRMIRERIPEALAGPPNDFGLFLSDDDPKKGIWLEAGKALDYYMLRNGDTMEYRKKQRPLKIRMLDGTVKTIMVDDSKTVTDMLMTICARIGITNHDEYSLVRELMEEKKDEGTGTLRKDKTLLRDEKKMEKLKQKLHTDDELNWLDHGRTLREQGVEEHETLLLRRKFFYSDQNVDSRDPVQLNLLYVQARDDILNGSHPVSFDKACEFAGFQCQIQFGPHNEQKHKAGFLDLKDFLPKEYVKQKGERKIFQAHKNCGQMSEIEAKVRYVKLARSLKTYGVSFFLVKEKMKGKNKLVPRLLGITKECVMRVDEKTKEVIQEWSLTNIKRWAASPKSFTLDFGDYQDGYYSVQTTEGEQIAQLIAGYIDIILKKKKS
notes: talin-1 (TLN1) head domain (THD), residues 1-405; murine TLN1 cDNA is named only for the cell lines; also called WT; source: E. coli (DE3) Rosetta 2, purified (IMAC, SEC); not shown: His10-SUMO, N-terminal, cleaved

Assays:
Conditions in all cases: both partners purified
[1] = target: T1, kindlin-2 (KIND2) (UniProt Q8CIB5 1-680); experiment: MST; apparent; KIND2 titrated to 488–β3-CT Y772A in the presence of 500 µM THD1; MST buffer
T1 construct: kindlin-2 (KIND2), recombinant; with the F1 loop and the PH domain (unlike ΔKIND2); source: E. coli Rosetta, purified (IMAC, SEC); not shown: His10-SUMO, N-terminal, cleaved
T1 sequence (looked up): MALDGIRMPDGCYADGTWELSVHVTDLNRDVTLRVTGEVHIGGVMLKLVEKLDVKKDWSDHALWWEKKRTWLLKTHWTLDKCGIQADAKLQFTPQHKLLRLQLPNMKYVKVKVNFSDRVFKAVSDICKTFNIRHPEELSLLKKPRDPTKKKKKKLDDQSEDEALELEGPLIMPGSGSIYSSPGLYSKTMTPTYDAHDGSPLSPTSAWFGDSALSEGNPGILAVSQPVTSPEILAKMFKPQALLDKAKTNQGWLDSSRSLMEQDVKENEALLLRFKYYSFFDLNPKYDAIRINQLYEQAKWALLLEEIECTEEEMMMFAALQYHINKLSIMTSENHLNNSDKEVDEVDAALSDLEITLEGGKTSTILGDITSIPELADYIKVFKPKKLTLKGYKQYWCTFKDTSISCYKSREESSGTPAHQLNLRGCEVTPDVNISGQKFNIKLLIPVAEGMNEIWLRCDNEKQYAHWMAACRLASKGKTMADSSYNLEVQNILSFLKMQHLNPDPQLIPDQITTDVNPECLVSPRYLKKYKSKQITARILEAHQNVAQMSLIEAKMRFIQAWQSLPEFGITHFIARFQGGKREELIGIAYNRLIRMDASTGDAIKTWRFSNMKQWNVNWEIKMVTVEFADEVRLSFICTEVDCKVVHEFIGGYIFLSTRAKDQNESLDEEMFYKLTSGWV

[2] = target: T1, kindlin-2 (KIND2); experiment: MST; unlabelled protein titrated to 50-200 nM ATTO 488-labelled β-CT peptide, no third protein; 20 mM Tris pH 7.5, 200 mM NaCl, 1 mM TCEP, 0.05% Tween-20; Kd of individual titrations (in S0002 mean and sd, n = 2)
[3] = target: T2, biotinylated integrin β1 transmembrane and cytoplasmic tail polypeptide (β1-TM–CT) in nanodiscs (UniProt P09055 726-798, biotin (biotin-maleimide)); experiment: flow cytometry-based reporter-displacement assay (FC-RDA) on beads; biotinylated TM–CT in 10% PIP2/90% DMPC nanodiscs on streptavidin beads; reporter 100 nM 565–THD1, unlabelled competitor titrated; 20 mM Tris pH 7.5, 200 mM NaCl, room temperature; IC50 of individual experiments; charged lipids contribute to the binding
T2 construct: integrin β1 TM and CT, residues 726-798; embedded in MSP2N2 nanodiscs with 10% PIP2 or PIP3 and 90% DMPC, on average one TM–CT per nanodisc; held on streptavidin beads; also called b1; source: E. coli BL21 (DE3) Rosetta 2, inclusion bodies, purified (IMAC, cation exchange)

[4] = target: T3, biotinylated integrin β3 transmembrane and cytoplasmic tail polypeptide (β3-TM–CT) in nanodiscs (UniProt O54890 715-787, biotin (biotin-maleimide)); experiment: flow cytometry-based reporter-displacement assay (FC-RDA) on beads; biotinylated TM–CT in 10% PIP3/90% DMPC nanodiscs on streptavidin beads; reporter 100 nM 565–THD1, unlabelled competitor titrated; 20 mM Tris pH 7.5, 200 mM NaCl, room temperature; IC50 of individual experiments; charged lipids contribute to the binding
T3 construct: integrin β3 TM and CT, residues 715-787; embedded in MSP2N2 nanodiscs with 10% PIP2 or PIP3 and 90% DMPC; held on streptavidin beads; also called b3; source: E. coli BL21 (DE3) Rosetta 2, inclusion bodies, purified (IMAC, cation exchange)
T3 sequence (looked up): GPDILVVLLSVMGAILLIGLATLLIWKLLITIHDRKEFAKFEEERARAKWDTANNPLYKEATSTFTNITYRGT

[5] = target: T2, biotinylated integrin β1 transmembrane …; experiment: flow cytometry-based reporter-displacement assay (FC-RDA) on beads; biotinylated TM–CT in 10% PIP2/90% DMPC nanodiscs on streptavidin beads; reporter 50 nM 647–KIND2, unlabelled competitor titrated; 20 mM Tris pH 7.5, 200 mM NaCl, room temperature; IC50 of individual experiments; charged lipids contribute to the binding
[6] = target: T2, biotinylated integrin β1 transmembrane …; experiment: flow cytometry-based reporter-displacement assay (FC-RDA) on beads; biotinylated TM–CT in PIP2-containing nanodiscs on streptavidin beads; reporter 647–KIND2-Y13A, unlabelled competitor titrated; IC50 of individual experiments
[7] = target: B2; experiment: MST; unlabelled protein titrated to 50-200 nM ATTO 488-labelled β-CT peptide, no third protein; 20 mM Tris pH 7.5, 200 mM NaCl, 1 mM TCEP, 0.05% Tween-20; Kd of individual titrations (in S0002 mean and sd, n = 2)
[8] = target: B2; experiment: as above; remark: listed apart in the source
[9] = target: B2; experiment: MST; apparent; THD1 titrated to 488–β1-CT or THD2 to 488–β3-CT in the presence of 30 µM KIND2; MST buffer
[10] = target: B2; experiment: MST; apparent; THD1 titrated to 488–β1-CT or 488–β3-CT in the presence of 300–400 µM β-CT-binding-impaired KIND2 Q614A,W615A (QW/AA); MST buffer
[11] = target: B2; experiment: MST; apparent; THD1 titrated to 488–β1-CT or 488–β3-CT in the presence of 500–1,100 µM KIND2-F0; MST buffer

Kd [1]: 17.9 µM and 15.3 µM and 23.3 µM and 13.4 µM
Kd [2]: 20.3 µM and 13.8 µM and 12.5 µM
B1: ATTO 488-labeled talin-binding-impaired β3-CT Y772A (peptide, UniProt O54890 741-787, looked up)
peptide: {ATTO 488}-KLLITIHDRKEFAKFEEERARAKWDTANNPLAKEATSTFTNITYRGT
notes: integrin β3 cytoplasmic tail (β3-CT), Y772A; source: synthetic peptide (MPIB Core Facility)

Binder: B2
IC50 [3]: 49 nM and 91 nM and 89 nM and 62 nM
IC50 [4]: 53 nM and 70 nM and 127 nM
IC50 [5]: 249 nM and 192 nM and 87 nM
IC50 [6]: 321 nM and 390 nM and 506 nM and 206 nM

Kd [7]: 128 µM and 152 µM and 141 µM
Kd [8]: 152 µM
Kd [9]: 159 µM and 173 µM and 127 µM
Kd [10]: 148 µM and 212 µM and 195 µM
Kd [11]: 173 µM and 137 µM and 177 µM
B3: ATTO 488-labeled integrin β1 cytoplasmic tail (488–β1-CT) (peptide, UniProt P09055-1 758-798, looked up)
peptide: {ATTO 488}-HDRREFAKFEKEKMNAKWDTGENPIYKSAVTTVVNPKYEGK
notes: integrin β1A cytoplasmic tail (β1-CT), residues 758-798; the limits 758-798 are stated for the recombinant β1-CT; also called β1A-CT; source: synthetic peptide (MPIB Core Facility)
